Positions count from the first letter of the chain named.

In assay [1] the target is T1, FLAG-tagged Ephexin4^E295A (murine, UniProt Q3U5C8 1-713, E295A).
T1 sequence (looked up): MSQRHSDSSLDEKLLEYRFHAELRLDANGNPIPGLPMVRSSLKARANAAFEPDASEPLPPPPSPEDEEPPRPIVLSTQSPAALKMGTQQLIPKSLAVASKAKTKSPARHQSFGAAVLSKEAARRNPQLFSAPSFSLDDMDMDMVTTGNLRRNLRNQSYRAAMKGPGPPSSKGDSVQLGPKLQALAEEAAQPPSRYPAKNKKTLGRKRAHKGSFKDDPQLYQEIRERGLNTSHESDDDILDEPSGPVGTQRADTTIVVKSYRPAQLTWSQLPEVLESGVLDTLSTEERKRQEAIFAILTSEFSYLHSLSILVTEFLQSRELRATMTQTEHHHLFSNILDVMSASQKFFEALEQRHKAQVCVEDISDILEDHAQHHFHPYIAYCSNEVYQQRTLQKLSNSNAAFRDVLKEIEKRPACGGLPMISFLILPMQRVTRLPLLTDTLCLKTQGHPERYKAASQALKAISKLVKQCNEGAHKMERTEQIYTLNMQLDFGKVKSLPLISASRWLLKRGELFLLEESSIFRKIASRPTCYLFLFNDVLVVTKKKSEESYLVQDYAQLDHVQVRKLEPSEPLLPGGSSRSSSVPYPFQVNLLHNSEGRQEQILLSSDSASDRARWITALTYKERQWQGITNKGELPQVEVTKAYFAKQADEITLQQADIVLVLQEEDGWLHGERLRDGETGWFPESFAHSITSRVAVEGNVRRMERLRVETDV
In words: cell-based or functional assay.

Assay [2] has as its target T2, FLAG-tagged wild-type Ephexin4 (murine, UniProt Q3U5C8 1-713).
T2 sequence (looked up): T1 sequence (looked up) with A295E
As to the kind of experiment: cell-based or functional assay.

B1: GFP-RhoG (natural protein)
chain: not shown
For the molecule B1, in assay [1], the “level of active (GTP-bound) RhoG precipitated by GST-Elmo2^N-term from 293T cells expressing Ephexin4^E295A, against control cells (Figure 3a,b)” value worked out at 2.9 fold and the “level of active endogenous RhoG (293T) precipitated by GST-Elmo2^N-term from cells expressing Ephexin4^E295A (Figure 3c,d)” value amounted to 2.6 fold. Further, in assay [2], the “level of active (GTP-bound) RhoG precipitated by GST-Elmo2^N-term from 293T cells expressing wild-type Ephexin4, against control cells (Figure 3a,b)” value was determined as 1.6 fold and the “level of active endogenous RhoG (293T) precipitated by GST-Elmo2^N-term from cells expressing wild-type Ephexin4 (Figure 3c,d)” value is 1.6 fold.

Values taken from PMC6262623, “The Intermolecular Interaction of Ephexin4 Leads to Autoinhibition by Impeding Binding of RhoG” (Cells, 2018).
